Laboratory results reported in US20240117018A1.

Experiments:
Assay in all cases: cell-based or functional assay
[1] = target: HIV-1 Env of pseudovirus 0815.v3.c3 (HIV-1)
[2] = target: HIV-1 Env of pseudovirus 191955_A11 (HIV-1)
[3] = target: HIV-1 Env of pseudovirus 211-9 (HIV-1)
[4] = target: HIV-1 Env of pseudovirus 231965.c01 (HIV-1)
[5] = target: HIV-1 Env of pseudovirus 231966.c02 (HIV-1)
[6] = target: HIV-1 Env of pseudovirus 235-47 (HIV-1)
[7] = target: HIV-1 Env of pseudovirus 263-8 (HIV-1)
[8] = target: HIV-1 Env of pseudovirus 3016.v5.c45 (HIV-1)
[9] = target: HIV-1 Env of pseudovirus 3103.v3.c10 (HIV-1)
[10] = target: HIV-1 Env of pseudovirus 3301.v1.c24 (HIV-1)
[11] = target: HIV-1 Env of pseudovirus 3817.v2.c59 (HIV-1)
[12] = target: HIV-1 Env of pseudovirus 620345.c01 (HIV-1)
[13] = target: HIV-1 Env of pseudovirus 6480.v4.c25 (HIV-1)
[14] = target: HIV-1 Env of pseudovirus 6540.v4.c1 (HIV-1)
[15] = target: HIV-1 Env of pseudovirus 6545.v4.c1 (HIV-1)
[16] = target: HIV-1 Env of pseudovirus 6811.v7.c18 (HIV-1)
[17] = target: HIV-1 Env of pseudovirus 6952.v1.c20 (HIV-1)
[18] = target: HIV-1 Env of pseudovirus 89-F1_2_25 (HIV-1)
[19] = target: HIV-1 Env of pseudovirus 9004SS_A3_4 (HIV-1)
[20] = target: HIV-1 Env of pseudovirus 928-28 (HIV-1)
[21] = target: HIV-1 Env of pseudovirus A07412M1.vrc12 (HIV-1)
[22] = target: HIV-1 Env of pseudovirus BJOX010000.06.2 (HIV-1)
[23] = target: HIV-1 Env of pseudovirus BJOX015000.11.5 (HIV-1)
[24] = target: HIV-1 Env of pseudovirus BJOX025000.01.1 (HIV-1)
[25] = target: HIV-1 Env of pseudovirus BJOX028000.10.3 (HIV-1)
[26] = target: HIV-1 Env of pseudovirus C3347.c11 (HIV-1)
[27] = target: HIV-1 Env of pseudovirus C4118.c09 (HIV-1)
[28] = target: HIV-1 Env of pseudovirus P0402_c2_11 (HIV-1)
[29] = target: HIV-1 Env of pseudovirus P1981_C5_3 (HIV-1)
[30] = target: HIV-1 Env of pseudovirus R1166.c01 (HIV-1)
[31] = target: HIV-1 Env of pseudovirus R2184.c04 (HIV-1)
[32] = target: HIV-1 Env of pseudovirus R3265.c06 (HIV-1)
[33] = target: HIV-1 Env of pseudovirus T251-18 (HIV-1)
[34] = target: HIV-1 Env of pseudovirus T255-34 (HIV-1)
[35] = target: HIV-1 Env of pseudovirus T257-31 (HIV-1)
[36] = target: HIV-1 Env of pseudovirus X1254_c3 (HIV-1)
[37] = target: HIV-1 Env of pseudovirus X2131_C1_B5 (HIV-1)

For N49P7.1 (antibody), the IC50 (neutralisation, TZM.bl cells) [1] was 0.023 µg/mL, the IC80 (neutralisation, TZM.bl cells) [1] was 0.064 µg/mL and the MPI [1] was 100. It also gave an IC50 [2] of 1.99 µg/mL, an IC80 [2] of 10.1 µg/mL and an MPI [2] of 98. The IC50 [3] was 0.34 µg/mL, the IC80 [3] was 1.17 µg/mL and the MPI [3] was 100. It also gave an IC50 (neutralisation, TZM.bl cells) [4] of 0.106 µg/mL, an IC80 (neutralisation, TZM.bl cells) [4] of 0.364 µg/mL and an MPI [4] of 100. The IC50 (neutralisation, TZM.bl cells) [5] was 0.203 µg/mL, the IC80 (neutralisation, TZM.bl cells) [5] was 0.705 µg/mL and the MPI [5] was 100. For the same substance, the IC50 [6] was 0.078 µg/mL, the IC80 [6] was 0.419 µg/mL and the MPI [6] was 97. It also gave an IC50 [7] of 0.104 µg/mL, an IC80 [7] of 0.392 µg/mL and an MPI [7] of 100. It also gave an IC50 (neutralisation, TZM.bl cells) [8] of 0.559 µg/mL, an IC80 (neutralisation, TZM.bl cells) [8] of 2.54 µg/mL and an MPI [8] of 100. The IC50 (neutralisation, TZM.bl cells) [9] was 0.229 µg/mL, the IC80 (neutralisation, TZM.bl cells) [9] was 0.772 µg/mL and the MPI [9] was 100. It also gave an IC50 (neutralisation, TZM.bl cells) [10] of 0.041 µg/mL, an IC80 (neutralisation, TZM.bl cells) [10] of 0.111 µg/mL and an MPI [10] of 100. The IC50 (neutralisation, TZM.bl cells) [11] was 1.48 µg/mL, the IC80 (neutralisation, TZM.bl cells) [11] was 8.36 µg/mL and the MPI [11] was 97. For the same substance, the IC50 [12] was over 50 µg/mL, the IC80 [12] was over 50 µg/mL and the MPI [12] was 47. It also gave an IC50 (neutralisation, TZM.bl cells) [13] of 0.056 µg/mL, an IC80 (neutralisation, TZM.bl cells) [13] of 0.192 µg/mL and an MPI [13] of 100. It also gave an IC50 (neutralisation, TZM.bl cells) [14] of 14.7 µg/mL, an IC80 (neutralisation, TZM.bl cells) [14] of over 50 µg/mL and an MPI [14] of 75. The IC50 (neutralisation, TZM.bl cells) [15] was 1.15 µg/mL, the IC80 (neutralisation, TZM.bl cells) [15] was 16 µg/mL and the MPI [15] was 92. It also gave an IC50 (neutralisation, TZM.bl cells) [16] of 0.321 µg/mL, an IC80 (neutralisation, TZM.bl cells) [16] of 1.46 µg/mL and an MPI [16] of 100. For the same substance, the IC50 (neutralisation, TZM.bl cells) [17] was 26.3 µg/mL, the IC80 (neutralisation, TZM.bl cells) [17] was over 50 µg/mL and the MPI [17] was 71. It also gave an IC50 (neutralisation, TZM.bl cells) [18] of 41.6 µg/mL, an IC80 (neutralisation, TZM.bl cells) [18] of over 50 µg/mL and an MPI [18] of 58. The IC50 [19] was 0.221 µg/mL, the IC80 [19] was 0.841 µg/mL and the MPI [19] was 100. The IC50 [20] was 0.23 µg/mL, the IC80 [20] was 0.775 µg/mL and the MPI [20] was 100. For the same substance, the IC50 (neutralisation, TZM.bl cells) [21] was 0.232 µg/mL, the IC80 (neutralisation, TZM.bl cells) [21] was 1.07 µg/mL and the MPI [21] was 100. For the same substance, the IC50 [22] was 0.132 µg/mL, the IC80 [22] was 0.623 µg/mL and the MPI [22] was 100. It also gave an IC50 [23] of 0.111 µg/mL, an IC80 [23] of 0.487 µg/mL and an MPI [23] of 100. For the same substance, the IC50 [24] was 0.057 µg/mL, the IC80 [24] was 0.378 µg/mL and the MPI [24] was 100. The IC50 [25] was 0.031 µg/mL, the IC80 [25] was 0.29 µg/mL and the MPI [25] was 100. For the same substance, the IC50 [26] was 0.048 µg/mL, the IC80 [26] was 0.161 µg/mL and the MPI [26] was 100. For the same substance, the IC50 [27] was 0.048 µg/mL, the IC80 [27] was 0.216 µg/mL and the MPI [27] was 100. The IC50 [28] was 0.029 µg/mL, the IC80 [28] was 0.115 µg/mL and the MPI [28] was 100. For the same substance, the IC50 (neutralisation, TZM.bl cells) [29] was 0.216 µg/mL, the IC80 (neutralisation, TZM.bl cells) [29] was 0.494 µg/mL and the MPI [29] was 100. It also gave an IC50 [30] of 0.136 µg/mL, an IC80 [30] of 0.461 µg/mL and an MPI [30] of 100. For the same substance, the IC50 [31] was 0.018 µg/mL, the IC80 [31] was 0.04 µg/mL and the MPI [31] was 100. For the same substance, the IC50 [32] was 0.059 µg/mL, the IC80 [32] was 0.328 µg/mL and the MPI [32] was 100. The IC50 [33] was 0.229 µg/mL, the IC80 [33] was 0.794 µg/mL and the MPI [33] was 100. The IC50 [34] was 0.094 µg/mL, the IC80 [34] was 0.447 µg/mL and the MPI [34] was 100. For the same substance, the IC50 [35] was 0.209 µg/mL, the IC80 [35] was 1.04 µg/mL and the MPI [35] was 100. For the same substance, the IC50 [36] was 3.96 µg/mL, the IC80 [36] was 18.2 µg/mL and the MPI [36] was 96. It also gave an IC50 (neutralisation, TZM.bl cells) [37] of 0.129 µg/mL, an IC80 (neutralisation, TZM.bl cells) [37] of 0.431 µg/mL and an MPI [37] of 100.
